Changes are numbered by the printed parent chain.

T1: mouse CD47-Fc (mouse, UniProt Q61735 19-140, limits assumed)
T1 construct: not shown: Fc part
T1 sequence (looked up): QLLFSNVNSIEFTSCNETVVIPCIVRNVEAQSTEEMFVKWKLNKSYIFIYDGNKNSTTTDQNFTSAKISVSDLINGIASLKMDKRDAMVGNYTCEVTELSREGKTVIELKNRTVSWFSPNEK

B1: ADI-26624 in Fab format (Fab, V domains shown)
VH: QVQLQESGPGLVKPSETLSLTCTVSGGSISSYYWSWIRQPPGKGLEWIGYIYYSGSTNYNPSLKSRVTISVDTSKNQFSLKLSSVTAADTAVYYCARGKSAFDPWGQGTLVTVSS
VL: DIQMTQSPSSVSASVGDRVTITCRASQGISRWLAWYQQKPGKAPKLLIYAASSLQSGVPSRFSGSGSGTDFTLTISSLQPEDFATYYCQQADLHPPLTFGGGTKVEIKR
B2: ADI-29336 in Fab format (Fab, V domains shown)
VH: B1 VH with S31N, Y50T, N58R, D103N
VL: B1 VL
B3: ADI-30793 in Fab format (Fab, V domains shown)
VH: EVQLLESGGGLVQPGGSLRLSCAASGFTFDSYAMTWVRQAPGKGLEWVSVISGSGGKTYYADSVKGRFTISRDNSKNTLYLQMNSLRAEDTAVYYCAKTHLYYGFDLWGRGTLVTVSS
VL: DIQLTQSPSSVSASVGDRVTITCRASQGISSWLAWYQQKPGKAPKLLIYGASSLQSGVPSRFSGSGSGTDFTLTISSLQPEDFATYYCQQKNPFPPFFGGGTKVEIKR
B4: ADI-29341 in Fab format (Fab, V domains shown)
VH: B1 VH with S30E, S31H, S100T, A101G, F102S, D103A, P104A
VL: B3 VL with L4M, S31R, G50A, K91T, N92V, P93S, P96I, F97T
B5: ADI-29371 in Fab format (Fab, V domains shown)
VH: EVQLLESGGGLVQPGGSLRLSCAASGFTFGNYAMSWVRQAPGKGLEWVSMISGGGSTYYADSVKGRFTISRDNSKNTLYLQMNSLRAEDTAVYYCAKTPIYYGFDLWGRGTLVTVSS
VL: B3 VL with F97T
B6: ADI-30794 in Fab format (Fab, V domains shown)
VH: B3 VH with D30G, S31N, T35S, V50A, H100A, L101I
VL: B3 VL
B7: ADI-29341 in IgG1 format produced in yeast cells (antibody)
heavy: not shown
light: DIQMTQSPSSVSASVGDRVTITCRASQGISRWLAWYQQKPGKAPKLLIYAASSLQSGVPSRFSGSGSGTDFTLTISSLQPEDFATYYCQQTVSFPITFGGGTKVEIKRTVAAPSVFIFPPSDEQLKSGTASVVCLLNNFYPREAKVQWKVDNALQSGNSQESVTEQDSKDSTYSLSSTLTLSKADYEKHKVYACEVTHQGLSSPVTKSFNRGEC
notes: also called ADI29341-IgG1
B8: ADI-29341 in IgG4 format produced in CHO cells (antibody)
heavy: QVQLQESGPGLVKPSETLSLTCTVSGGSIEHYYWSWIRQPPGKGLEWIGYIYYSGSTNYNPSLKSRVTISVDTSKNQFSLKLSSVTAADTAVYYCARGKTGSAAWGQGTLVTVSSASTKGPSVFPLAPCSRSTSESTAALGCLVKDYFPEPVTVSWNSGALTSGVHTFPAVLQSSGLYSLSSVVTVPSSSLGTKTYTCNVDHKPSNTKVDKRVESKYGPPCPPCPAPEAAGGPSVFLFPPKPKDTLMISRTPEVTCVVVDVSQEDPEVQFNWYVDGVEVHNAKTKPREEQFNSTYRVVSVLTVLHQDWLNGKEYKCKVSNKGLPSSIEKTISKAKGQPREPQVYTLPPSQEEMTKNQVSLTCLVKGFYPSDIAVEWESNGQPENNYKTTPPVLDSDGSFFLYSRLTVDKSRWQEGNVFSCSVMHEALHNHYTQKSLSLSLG
light: B7 light
notes: also called ADI29341-IgG4
B9: ADI-26624 in IgG1 format produced in yeast cells (antibody)
heavy: not shown
light: DIQMTQSPSSVSASVGDRVTITCRASQGISRWLAWYQQKPGKAPKLLIYAASSLQSGVPSRFSGSGSGTDFTLTISSLQPEDFATYYCQQADLHPPLTFGGGTKVEIKRTVAAPSVFIFPPSDEQLKSGTASVVCLLNNFYPREAKVQWKVDNALQSGNSQESVTEQDSKDSTYSLSSTLTLSKADYEKHKVYACEVTHQGLSSPVTKSFNRGEC
notes: also called ADI26624-IgG1
B10: ADI-26624 in IgG4 format produced in CHO cells (antibody)
heavy: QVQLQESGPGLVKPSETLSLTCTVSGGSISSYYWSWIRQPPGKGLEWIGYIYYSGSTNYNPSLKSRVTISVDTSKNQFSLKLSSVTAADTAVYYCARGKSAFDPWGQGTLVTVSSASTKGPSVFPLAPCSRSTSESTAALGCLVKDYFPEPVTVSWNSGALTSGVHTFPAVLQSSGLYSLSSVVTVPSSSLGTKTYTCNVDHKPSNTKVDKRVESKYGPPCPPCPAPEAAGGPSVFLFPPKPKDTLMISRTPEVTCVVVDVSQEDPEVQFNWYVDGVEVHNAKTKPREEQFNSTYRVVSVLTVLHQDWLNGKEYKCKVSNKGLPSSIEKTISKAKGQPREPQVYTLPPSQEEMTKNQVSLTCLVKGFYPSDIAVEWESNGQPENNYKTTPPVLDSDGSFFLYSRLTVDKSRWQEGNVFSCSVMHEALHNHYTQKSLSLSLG
light: B9 light
notes: also called ADI26624-IgG4
B11: ADI-29336 in IgG4 format produced in CHO cells (antibody)
heavy: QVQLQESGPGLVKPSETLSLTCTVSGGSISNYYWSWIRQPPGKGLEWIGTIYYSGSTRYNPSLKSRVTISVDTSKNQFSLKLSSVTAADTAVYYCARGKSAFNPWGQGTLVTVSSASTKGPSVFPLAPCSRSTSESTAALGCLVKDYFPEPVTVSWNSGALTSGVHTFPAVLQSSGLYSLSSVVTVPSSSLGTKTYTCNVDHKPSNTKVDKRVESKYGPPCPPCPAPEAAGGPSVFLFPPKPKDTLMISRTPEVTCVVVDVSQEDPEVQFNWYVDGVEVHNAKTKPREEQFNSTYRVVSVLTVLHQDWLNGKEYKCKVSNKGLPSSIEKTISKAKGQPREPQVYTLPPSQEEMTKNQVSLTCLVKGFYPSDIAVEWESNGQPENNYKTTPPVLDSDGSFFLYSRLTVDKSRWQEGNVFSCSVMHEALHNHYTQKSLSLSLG
light: B9 light
notes: also called ADI29336-IgG4
B12: ADI-29336 in IgG1 format produced in yeast cells (antibody)
heavy: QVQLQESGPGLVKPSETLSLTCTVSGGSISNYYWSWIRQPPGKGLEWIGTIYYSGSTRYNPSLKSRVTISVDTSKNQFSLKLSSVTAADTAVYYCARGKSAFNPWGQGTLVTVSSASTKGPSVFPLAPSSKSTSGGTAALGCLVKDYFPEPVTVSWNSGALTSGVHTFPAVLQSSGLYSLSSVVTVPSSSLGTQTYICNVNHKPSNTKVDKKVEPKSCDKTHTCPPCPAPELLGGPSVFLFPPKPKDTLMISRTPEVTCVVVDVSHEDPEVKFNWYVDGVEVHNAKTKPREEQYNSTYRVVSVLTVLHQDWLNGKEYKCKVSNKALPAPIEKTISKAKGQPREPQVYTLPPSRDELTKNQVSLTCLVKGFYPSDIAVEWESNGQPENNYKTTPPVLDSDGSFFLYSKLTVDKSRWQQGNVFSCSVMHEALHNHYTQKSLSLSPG
light: B9 light
notes: also called ADI29336-IgG1
B13: ADI-30793 in IgG1 format produced in yeast cells (antibody, V domains shown)
VH: B3 VH
VL: B3 VL
notes: also called ADI 30793-IgG1
B14: ADI-26591 in IgG1 format, expressed in yeast (antibody, V domains shown)
VH: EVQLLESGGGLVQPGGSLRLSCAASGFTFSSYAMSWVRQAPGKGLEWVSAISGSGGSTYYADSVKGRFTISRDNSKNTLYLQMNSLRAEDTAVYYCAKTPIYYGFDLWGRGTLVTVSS
VL: B3 VL with F97T
notes: also called ADI 26591-IgG1
B15: ADI-29371 in IgG1 format produced in yeast cells (antibody)
heavy: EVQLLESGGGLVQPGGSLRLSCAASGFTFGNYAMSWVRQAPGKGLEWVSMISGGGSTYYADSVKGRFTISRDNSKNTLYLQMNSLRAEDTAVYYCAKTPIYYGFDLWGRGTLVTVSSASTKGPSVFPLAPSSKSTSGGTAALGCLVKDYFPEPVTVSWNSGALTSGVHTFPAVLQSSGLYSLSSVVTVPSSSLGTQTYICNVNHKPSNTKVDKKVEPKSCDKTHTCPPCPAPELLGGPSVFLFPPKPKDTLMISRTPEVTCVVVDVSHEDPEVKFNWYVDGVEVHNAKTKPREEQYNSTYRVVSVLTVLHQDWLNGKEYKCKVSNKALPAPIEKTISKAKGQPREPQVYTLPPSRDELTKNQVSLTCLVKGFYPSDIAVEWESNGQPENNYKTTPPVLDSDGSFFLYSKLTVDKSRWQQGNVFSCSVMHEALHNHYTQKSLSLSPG
light: B7 light with M4L, R31S, A50G, T91K, V92N, S93P, I96P
notes: also called ADI 29371-IgG1
B16: ADI-30794 in IgG1 format produced in yeast cells (antibody, V domains shown)
VH: B3 VH with D30G, S31N, T35S, V50A, H100A, L101I
VL: B3 VL
notes: also called ADI 30794-IgG1
B17: ADI-29371 in IgG4 format produced in CHO cells (antibody)
heavy: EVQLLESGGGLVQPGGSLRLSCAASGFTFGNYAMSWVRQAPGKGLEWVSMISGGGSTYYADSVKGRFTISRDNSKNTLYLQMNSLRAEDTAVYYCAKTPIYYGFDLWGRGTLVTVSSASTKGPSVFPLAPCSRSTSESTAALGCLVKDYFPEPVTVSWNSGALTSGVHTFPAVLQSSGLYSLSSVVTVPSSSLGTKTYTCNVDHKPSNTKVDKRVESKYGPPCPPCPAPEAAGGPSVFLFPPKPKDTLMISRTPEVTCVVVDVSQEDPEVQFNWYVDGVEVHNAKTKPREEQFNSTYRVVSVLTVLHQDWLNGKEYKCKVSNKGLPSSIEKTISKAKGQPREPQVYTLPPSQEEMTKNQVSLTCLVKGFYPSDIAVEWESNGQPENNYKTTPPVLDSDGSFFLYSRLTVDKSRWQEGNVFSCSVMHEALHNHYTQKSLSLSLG
light: B7 light with M4L, R31S, A50G, T91K, V92N, S93P, I96P
notes: also called ADI 29371-IgG4

The target in the first test is T2, Human CD47-Fc (human, UniProt Q08722 19-139, limits assumed).
T2 construct: the whole entry is named here; also called human CD47 (hCD47); CD47 antigen; not shown: Fc part
The test is described as follows: bio-light interferometry (ForteBio), human CD47-Fc on AHQ tip, Fab 100 nM in solution, monovalent.
In turn, B1 yielded a Kd of 65.8 nM.

B2 yielded a Kd of 1.32 nM.

The molecule B3 had a Kd of 9.34 nM.

The molecule B4 gave a Kd of 4.62 nM.

B5 registered a Kd of 218 nM.

B6 had a Kd of 3.13 nM.

A further test has as its target T3, human CD47 overexpressed on CHO cells (human, UniProt Q08722 19-292).
T3 construct: CHO cells transfected with pCHO1.0 bearing a human CD47 cDNA (Sino Biological); also called hCD47; CHO-hCD47 cells
The test is described as follows: flow cytometry competition on CHO-hCD47 cells against 200 nM mouse Fc-labelled SIRPα. On the technique in general: In flow cytometry, cells or beads pass a laser one at a time.
Experimental: Then the cells were washed 3 times and subsequently incubated with a secondary antibody, goat-anti-mouse IgG-APC (Allophycocyanin) (Biolegend), in PBS with 0.1% BSA on ice for 30 min (in dark). Cells were washed 3 times. Flow cytometry assay was performed on Accuri C6 System (BD Biosciences) and MFI was calculated with C6 software.
The IC50 is the concentration at which inhibition is half-maximal. High values mean weaker potency, low ones greater potency. Take B7: the IC50 was determined as 2.48 nM.

B8 showed a concentration for half-maximal inhibition (IC50) of 0.604 nM.

B9 returned an IC50 of 11.2 nM.

B10 registered an IC50 of 1.04 nM.

The molecule B11 showed a half-maximal inhibitory concentration (IC50) of 1.39 nM.

In turn, B12 displayed an IC50 of 8.55 nM.

A further test deals with T4, cynomolgus CD47-Fc (cynomolgus, UniProt A0A2K5X523 19-139).
T4 construct: not shown: Fc part
The test is described as follows: bio-light interferometry (ForteBio), IgG1 on AHQ tip, cynomolgus CD47-Fc 100 nM in solution, bivalent. On the technique in general: In BLI a coated tip is dipped into the sample, and binding shifts an interference pattern.
B13 came in with a Kd of 0.584 nM.

As for B14, the Kd is 3.39 nM.

For B15, the Kd was found to be 1.41 nM.

With B12, the Kd worked out at 0.544 nM.

In the next test the target is T1, mouse CD47-Fc. The test is described as follows: bio-light interferometry (ForteBio), IgG1 on AHQ tip, mouse CD47-Fc in solution, bivalent.
On to B16, for which the binding result is recorded as “no binding (tested: 100 nM)”.

As to B14, the binding result was “no binding (tested: 100 nM)”.

With B7, the binding result is on record as “no binding (tested: 100 nM)”.

In the case of B15, the binding result is listed as “no binding (tested: 100 nM)”.

As for B9, the binding result is “no binding (tested: 100 nM)”.

Regarding B12, the binding result is “no binding (tested: 100 nM)”.

A further test deals with T1, mouse CD47-Fc. The test is described as follows: bio-light interferometry (ForteBio), IgG1 on AHQ tip, mouse CD47-Fc 100 nM in solution, bivalent.
Experimental: (§1) In brief, Sensors were equilibrated off-line in assay buffer for 30 min and then tested on-line for 60 sec to establish the base line. The purified antibody obtained as described above was loaded on-line onto AHQ sensor (ForteBio) to perform ForteBio affinity measurement. Then, the sensor loaded with the antibody was exposed to 100 nM of CD47 antigen for 5 min, followed by transferring the sensor into the assay buffer for 5 min to measure the dissociation rate. A kinetics analysis was performed using the 1:1 binding model.
B13 had a Kd of 4.57 nM.

In a further test the target is T2, Human CD47-Fc. Kind of test: bio-light interferometry (ForteBio), IgG1 on AHQ tip, human CD47-Fc 100 nM in solution, bivalent.
Experimental: as §1
B16 had a Kd of 0.562 nM.

For the molecule B13, the Kd worked out at 0.632 nM.

Regarding B14, the Kd was 5.38 nM.

Take B7: the Kd turned out to be 0.501 nM.

For B15, the Kd turned out to be 1.95 nM.

In the case of B9, the Kd amounted to 1.05 nM.

The molecule B12 gave a Kd of 0.477 nM.

The target of another test is T3, human CD47 overexpressed on CHO cells. The test is described as follows: flow cytometry on CHO-hCD47 cells, PE anti-human IgG.
Experimental: Then the cells were washed at least two times and incubated with a secondary antibody (PE-labelled goat anti-human IgG antibody, Southern Biotech, final concentration of 5 μg/ml) in PBS with 0.1% BSA on ice for 30 min (in dark). The cells were washed at least two times and analyzed by flow cytometry. Flow cytometry was performed on Accuri C6 System (BD Biosciences) and a concentration-dependent graph was fitted with GraphPad, according to MFI of the cells.
By EC50 is commonly meant the concentration at which the effect is half-maximal. B16: the EC50 is 3.7 nM.

Consider B13, for which the EC50 stood at 2.92 nM.

Molecule B14 returned an EC50 of 3.77 nM.

Molecule B7 yielded an EC50 of 3.34 nM.

Molecule B15 showed an EC50 of 2.13 nM.

The molecule B8 came in with a concentration for a half-maximal effect (EC50) of 1.89 nM.

As for B17, a half-maximal effect (EC50) was put at 2.31 nM.

The molecule B9 showed a half-maximal effective concentration (EC50) of 2.25 nM. The EC50 values of the last two molecules are within 1.5-fold of each other.

As to B11, the EC50 is 2.48 nM.

As for B12, it took 6.72 nM to reach a half-maximal effect (EC50). Against the preceding molecule, the EC50 is about 2.7-fold higher.
